Source: patent publication US20050129676A1 (ADHEREX TECHNOLOGIES, published 2005)

B1: H-DWVIPP-NH2 (peptide)
peptide: H-DWVIPP-NH2
notes: Linear synthetic peptide; also called ADH254
B2: H-DWVIAP-NH2 (peptide)
peptide: H-DWVIAP-NH2
notes: Linear synthetic peptide; analogue of H-DWVIPP-NH2
B3: H-DWVIPA-NH2 (peptide)
peptide: H-DWVIPA-NH2
notes: as for B2
B4: H-PWVIPP-NH2 (peptide)
peptide: H-PWVIPP-NH2
notes: as for B2
B5: H-DWVAPP-NH2 (peptide)
peptide: H-DWVAPP-NH2
notes: as for B2
B6: H-AWVIPP-NH2 (peptide)
peptide: H-AWVIPP-NH2
notes: as for B2

Legend:
[1] = molecular target: T1, Fc-E-cadherin chimeric protein; experiment: SPR (BIAcore X), Fc-E-cadherin captured on protein A, peptide as analyte, 3 mM CaCl2, fit to binding isotherm
T1 construct: It was captured on immobilised protein A on a CM5 chip (about 3500 RU)
T1 sequence (P12830 155-709, change not shown): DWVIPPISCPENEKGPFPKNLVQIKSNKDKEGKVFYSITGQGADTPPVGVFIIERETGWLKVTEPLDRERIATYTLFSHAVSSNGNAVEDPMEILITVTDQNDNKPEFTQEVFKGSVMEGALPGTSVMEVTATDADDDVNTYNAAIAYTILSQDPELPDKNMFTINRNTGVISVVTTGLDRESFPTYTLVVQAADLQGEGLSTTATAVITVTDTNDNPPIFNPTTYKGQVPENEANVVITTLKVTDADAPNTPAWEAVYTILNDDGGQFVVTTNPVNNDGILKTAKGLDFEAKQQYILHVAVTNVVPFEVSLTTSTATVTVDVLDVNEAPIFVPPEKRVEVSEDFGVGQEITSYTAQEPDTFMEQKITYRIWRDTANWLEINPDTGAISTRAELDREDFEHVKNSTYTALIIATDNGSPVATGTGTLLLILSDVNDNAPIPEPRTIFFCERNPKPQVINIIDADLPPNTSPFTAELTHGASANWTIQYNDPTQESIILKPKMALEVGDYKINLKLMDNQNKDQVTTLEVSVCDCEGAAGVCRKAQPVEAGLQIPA
Experimental: (§1) The binding of representative peptide modulating agents to Fc-E-cadherin chimeric protein in either the presence (3 mM CaCl₂) or absence of calcium was assessed using a BIAcore X™ Biosensor (Pharmacia Ltd., Sweden). Protein A was immobilized on the flow cells of a CM 5 sensor chip using a standard amine coupling method. The surfaces were activated with a 7 min injection of NHS/EDC, followed by a 7 min injection of protein A in 10 mM acetate pH 5.0 at a concentration of 50 ug/mL and blocked with a 7 min injection of 8 M ethanolamine, pH 8.2. […] Next, Fc-E-cadherin was injected over the protein A surface to be captured on the sensor chip.
(§2) To test compound binding to these surfaces, candidate modulating agents were injected in a three-fold dilution series over the Fc-E-cadherin-coated surfaces using six concentrations and each concentration was repeated twice.

[2] = molecular target: T1, Fc-E-cadherin chimeric protein; experiment: SPR (BIAcore X), Fc-E-cadherin captured on protein A, peptide as analyte, no calcium, fit to binding isotherm
Experimental: as §1, §2

[3] = molecular target: T1, Fc-E-cadherin chimeric protein; experiment: SPR (BIAcore X), Fc-E-cadherin captured on protein A, peptide as analyte, 3 mM CaCl2, fit to binding isotherm; with Ca^++ (3 mM CaCl2)
Experimental: as §1, §2

Binder	Kd [1]	Kd [2]	Kd [3]
B1	34 µM		
B2	17 µM		
H-DWVIP-NH2 (Linear synthetic peptide) [H-DWVIP-NH2]	36.1 µM	66 µM	
B3	59 µM		
B4	543 µM		
B5			21000 µM
B6	42 µM		
